Results taken from IntAct's records for PubMed 23415225.

B1: AP-1 complex subunit gamma-1 (Mus musculus), P22892 (parent)
chain: MPAPIRLRELIRTIRTARTQAEEREMIQKECAAIRSSFREEDNTYRCRNVAKLLYMHMLGYPAHFGQLECLKLIASQKFTDKRIGYLGAMLLLDERQDVHLLMTNCIKNDLNHSTQFVQGLALCTLGCMGSSEMCRDLAGEVEKLLKTSNSYLRKKAALCAVHVIRKVPELMEMFLPATKNLLNEKNHGVLHTSVVLLTEMCERSPDMLAHFRKLVPQLVRILKNLIMSGYSPEHDVSGISDPFLQVRILRLLRILGRNDDDSSEAMNDILAQVATNTETSKNVGNAILYETVLTIMDIKSESGLRVLAINILGRFLLNNDKNIRYVALTSLLKTVQTDHNAVQRHRSTIVDCLKDLDVSIKRRAMELSFALVNGNNIRGMMKELLYFLDSCEPEFKADCASGIFLAAEKYAPSKRWHIDTIMRVLTTAGSYVRDDAVPNLIQLITNSVEMHAYTVQRLYKAILGDYSQQPLVQVAAWCIGEYGDLLVSGQCEEEEPIQVTEDEVLDILESVLISNMSTSVTRGYALTAIMKLSTRFTCTVNRIKKVVSIYGSSIDVELQQRAVEYNALFKKYDHMRSALLERMPVMEKVTTNGPSEIVQTNGETEPAPLETKPPPSGPQPTSQANDLLDLLGGNDITPVIPTAPTSKPASAGGELLDLLGDITLTGAPAAAPTPASVPQISQPPFLLDGLSSQPLFNDIAPGIPSITAYSKNGLKIEFTFERSNTNPSVTVITIQASNSTELDMTDFVFQAAVPKTFQLQLLSPSSSVVPAFNTGTITQVIKVLNPQKQQLRMRIKLTYNHKGSAMQDLAEVNNFPPQSWQ
partner: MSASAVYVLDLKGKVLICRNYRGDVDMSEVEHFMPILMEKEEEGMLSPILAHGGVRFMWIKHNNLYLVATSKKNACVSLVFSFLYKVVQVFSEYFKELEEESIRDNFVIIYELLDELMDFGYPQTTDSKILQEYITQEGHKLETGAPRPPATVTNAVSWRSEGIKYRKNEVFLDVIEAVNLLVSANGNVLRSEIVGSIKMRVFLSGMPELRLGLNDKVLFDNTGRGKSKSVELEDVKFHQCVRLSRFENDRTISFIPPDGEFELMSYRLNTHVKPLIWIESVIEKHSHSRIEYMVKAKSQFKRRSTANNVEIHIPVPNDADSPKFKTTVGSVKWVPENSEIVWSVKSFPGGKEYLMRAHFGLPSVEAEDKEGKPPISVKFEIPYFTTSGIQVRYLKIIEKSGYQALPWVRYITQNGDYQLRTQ
B2: AP-1 complex subunit beta-1 (Homo sapiens), Q10567 (parent)
chain: MTDSKYFTTTKKGEIFELKAELNSDKKEKKKEAVKKVIASMTVGKDVSALFPDVVNCMQTDNLELKKLVYLYLMNYAKSQPDMAIMAVNTFVKDCEDPNPLIRALAVRTMGCIRVDKITEYLCEPLRKCLKDEDPYVRKTAAVCVAKLHDINAQLVEDQGFLDTLKDLISDSNPMVVANAVAALSEIAESHPSSNLLDLNPQSINKLLTALNECTEWGQIFILDCLANYMPKDDREAQSICERVTPRLSHANSAVVLSAVKVLMKFMEMLSKDLDYYGTLLKKLAPPLVTLLSAEPELQYVALRNINLIVQKRPEILKHEMKVFFVKYNDPIYVKLEKLDIMIRLASQANIAQVLAELKEYATEVDVDFVRKAVRAIGRCAIKVEQSAERCVSTLLDLIQTKVNYVVQEAIVVIKDIFRKYPNKYESVIATLCENLDSLDEPEARAAMIWIVGEYAERIDNADELLESFLEGFHDESTQVQLQLLTAIVKLFLKKPTETQELVQQVLSLATQDSDNPDLRDRGYIYWRLLSTDPVAAKEVVLAEKPLISEETDLIEPTLLDELICYIGTLASVYHKPPSAFVEGGRGVVHKSLPPRTASSESAESPETAPTGAPPGEQPDVIPAQGDLLGDLLNLDLGPPVSGPPLATSSVQMGAVDLLGGGLDSLMGDEPEGIGGTNFVAPPTAAVPANLGAPIGSGLSDLFDLTSGVGTLSGSYVAPKAVWLPAMKAKGLEISGTFTRQVGSISMDLQLTNKALQVMTDFAIQFNRNSFGLAPAAPLQVHAPLSPNQTVEISLPLSTVGSVMKMEPLNNLQVAVKNNIDVFYFSTLYPLHILFVEDGKMDRQMFLATWKDIPNENEAQFQIRDCPLNAEAASSKLQSSNIFTVAKRNVEGQDMLYQSLKLTNGIWVLAELRIQPGNPSCTDLELSLKCRAPEVSQHVYQAYETILKN

Variants of: B1
Conditions: with ap1m1_mouse Ap1m1, P35585

Row | Variant | effect of a mutation on the interaction
1 | L68D;L71E;L102E | disrupting interaction strength

Variants of: B2
Conditions: with ap1g1_human AP1G1, O43747

Row | Variant | effect of a mutation on the interaction
2 | I85D;V88D | disrupting interaction strength
